Measurements taken from PMC8808176 (The Journal of Biological Chemistry, 2021).

Target: the molecule itself
Assay: cryo-EM structure

B1: full-length mouse TRPML2 (mmTRPML2) with N-terminal maltose-binding protein (natural protein, UniProt Q8K595-1 1-566, looked up)
chain: MPGDEETLDLPAWNRVPDLTWGPHHRSAMASLDSEVREECLREDLKFYFMSPCEKYRARRQIPWKLGLQILKIVMVTTQLVRFGLSNQLVVAFKEDNTVAFKHLFLKGFSGVDEDDYSCSIYTQENTYESIFFAIKQYRHLKNISLATLGYGESEDNRTGLKVCKQHYKTGAMFSSNETLNIDSDIETDCIHLDLQVLTTEPEDWAQTSFFRLDFYRLVQVDISFALKGIDLQAVHSREIPDCYLFQNTITFDNTAHSGKIKIYLNSEANIEECKNMNISGSTQRSTHYLLVFDVFVIMICLASLILCTRSIVLALRLRKRFLNFFLEKYKQRVCGADQWEFVNGWYVLVTISDLMTIIGSILKMEIKAKKLTNYDVCSILLGTSTLFVWVGVIRYLGYFQTYNVLILTMQASLPKVLRFCACAGMIYLGYTFCGWIVLGPYHEKFENLNIVAECLFSLVNGDDMFATFAQIQQKSILVWLFSRLYLYSFISLFIYMVLSLFIALITDSYHTIKKYQQHGFPETDLQKFLKESGSKDGYQKQPSALLSCLCCLRRRRSNDHLILID
stoichiometry N: 4
